Reference: PMC3616739

Target: GST-LEDGF PWWP (UniProt O75475 1-100)
Experiment: EMSA

GST-LEDGF PWWP, sequence (O75475 1-100): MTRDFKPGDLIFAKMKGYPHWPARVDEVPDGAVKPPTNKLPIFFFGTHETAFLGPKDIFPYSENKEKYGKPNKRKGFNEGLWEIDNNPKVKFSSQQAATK

B1: non-specific DNA 40 bp (dsDNA)
DNA 1: CTGCAGAAGCTTGGTGCCGGGGCCGCTCAATTGGTCGTAG
DNA 2: CTACGACCAATTGAGCGGCCCCGGCACCAAGCTTCTGCAG
**Q.** How did the Kd turn out when B1 was run?
**A.** Its Kd is roughly 1.5 µM.

B2: SMYD1 DNA 40 bp (dsDNA)
DNA 1: CAGGCTGGTCTTGAACTCCTGACCTCAGATGATCCATGTG
DNA 2: CACATGGATCATCTGAGGTCAGGAGTTCAAGACCAGCCTG
**Q.** How did the Kd turn out when B2 was run?
**A.** The Kd was roughly 1.5 µM.
